Data on two molecules can be found in PMC12098889, “Structural insight into PIF6-mediated red light signal transduction of plant phytochrome B” (Cell Discovery, 2025).

Substitutions are numbered along the chain they refer to.

Holding throughout (conditions): both partners purified
Experiment [1] has as its target T1, phyBN (residues 1‒908 of phyB) (Arabidopsis, UniProt P14713 1-908, PΦB chromophore covalently bound).
T1 construct: Arabidopsis phytochrome B, residues 1-908 (HKRD truncated); also called phyBN-Pfr (red light-irradiated); source: E. coli BL21(DE3), co-expressed with HO1 and HY2, purified; not shown: 3× Flag, N-terminal, kept
T1 sequence (looked up): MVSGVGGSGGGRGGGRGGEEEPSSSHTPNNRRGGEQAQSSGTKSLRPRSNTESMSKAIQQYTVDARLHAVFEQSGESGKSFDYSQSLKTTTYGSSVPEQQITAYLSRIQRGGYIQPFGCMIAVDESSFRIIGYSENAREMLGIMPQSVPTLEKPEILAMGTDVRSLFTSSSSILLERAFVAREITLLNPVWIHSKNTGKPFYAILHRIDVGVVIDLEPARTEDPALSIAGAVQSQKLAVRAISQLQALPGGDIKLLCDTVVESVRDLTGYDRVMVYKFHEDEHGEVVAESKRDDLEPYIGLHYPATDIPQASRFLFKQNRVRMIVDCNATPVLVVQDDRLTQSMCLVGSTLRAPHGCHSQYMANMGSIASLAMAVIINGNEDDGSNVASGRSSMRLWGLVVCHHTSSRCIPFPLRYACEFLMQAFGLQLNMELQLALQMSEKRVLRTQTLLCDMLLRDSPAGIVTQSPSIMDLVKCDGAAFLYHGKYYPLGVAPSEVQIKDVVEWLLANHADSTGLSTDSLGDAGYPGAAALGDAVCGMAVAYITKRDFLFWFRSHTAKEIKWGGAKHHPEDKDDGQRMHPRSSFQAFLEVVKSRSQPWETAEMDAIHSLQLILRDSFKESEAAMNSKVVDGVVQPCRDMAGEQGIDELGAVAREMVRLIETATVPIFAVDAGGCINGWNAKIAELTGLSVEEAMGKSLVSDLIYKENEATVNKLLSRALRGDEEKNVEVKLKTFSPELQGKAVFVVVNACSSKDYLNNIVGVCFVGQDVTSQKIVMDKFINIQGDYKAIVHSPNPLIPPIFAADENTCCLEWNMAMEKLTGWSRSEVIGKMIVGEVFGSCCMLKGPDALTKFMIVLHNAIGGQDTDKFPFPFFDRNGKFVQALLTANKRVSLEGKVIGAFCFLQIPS
Kind of experiment: pull-down; StrepII-tagged PIF6N (1-64) and its mutants used to pull down Flag-tagged phyBN (Pfr) and its site-directed mutants; SDS-PAGE with Coomassie and zinc-induced fluorescence.

Experiment [2] addresses T2, phytochrome B (phyB), full length (1‒1172) (Arabidopsis, UniProt P14713 1-1172, PΦB chromophore covalently linked to C357).
T2 construct: Arabidopsis phytochrome B, residues 1-1172, At2g18790; The same protein is Pr in the dark and Pfr after red light; The purification uses Ni-NTA, but no His tag on phyB is described; also called wild-type phyB; phyB-Pr (dark); source: E. coli BL21(DE3), co-expressed with HO1 and HY2, purified (Ni-NTA, anti-FLAG resin, Source Q); not shown: 3× Flag ([residues removed]), N-terminal, kept
T2 sequence (looked up): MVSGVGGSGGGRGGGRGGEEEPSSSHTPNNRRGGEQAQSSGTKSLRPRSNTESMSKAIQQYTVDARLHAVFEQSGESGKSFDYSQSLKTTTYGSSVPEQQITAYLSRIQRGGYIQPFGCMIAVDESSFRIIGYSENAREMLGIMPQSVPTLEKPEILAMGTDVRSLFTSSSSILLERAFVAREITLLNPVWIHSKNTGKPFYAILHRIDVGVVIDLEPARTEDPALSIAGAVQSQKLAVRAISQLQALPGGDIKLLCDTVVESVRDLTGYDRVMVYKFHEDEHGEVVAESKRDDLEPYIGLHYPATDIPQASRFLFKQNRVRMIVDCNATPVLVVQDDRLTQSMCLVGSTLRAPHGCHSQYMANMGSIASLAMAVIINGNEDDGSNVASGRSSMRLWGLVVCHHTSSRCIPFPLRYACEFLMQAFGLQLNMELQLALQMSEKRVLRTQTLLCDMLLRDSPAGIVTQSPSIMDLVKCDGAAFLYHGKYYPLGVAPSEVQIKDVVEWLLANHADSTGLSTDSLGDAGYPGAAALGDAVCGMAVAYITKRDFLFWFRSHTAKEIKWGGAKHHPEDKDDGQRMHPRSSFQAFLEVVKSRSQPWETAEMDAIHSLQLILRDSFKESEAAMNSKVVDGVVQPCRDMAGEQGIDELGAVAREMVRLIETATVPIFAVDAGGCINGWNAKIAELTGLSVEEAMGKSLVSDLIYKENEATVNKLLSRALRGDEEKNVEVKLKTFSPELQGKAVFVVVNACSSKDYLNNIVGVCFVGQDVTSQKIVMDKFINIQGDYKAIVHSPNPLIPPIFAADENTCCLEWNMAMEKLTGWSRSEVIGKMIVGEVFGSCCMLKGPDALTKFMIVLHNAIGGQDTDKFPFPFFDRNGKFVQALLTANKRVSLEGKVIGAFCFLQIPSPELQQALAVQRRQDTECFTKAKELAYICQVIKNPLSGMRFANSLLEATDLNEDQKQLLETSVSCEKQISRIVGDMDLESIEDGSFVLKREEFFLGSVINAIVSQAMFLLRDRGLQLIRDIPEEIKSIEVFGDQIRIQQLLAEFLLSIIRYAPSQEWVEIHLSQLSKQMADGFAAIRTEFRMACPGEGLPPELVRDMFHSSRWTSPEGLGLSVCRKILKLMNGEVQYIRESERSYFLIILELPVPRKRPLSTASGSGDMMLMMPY
Kind of experiment: SEC; Superose 6 Increase 10/300 GL; 25 mM Tris-HCl pH 8.0, 150 mM NaCl, 5 mM DTT; red light-irradiated phyB; peak fractions on SDS-PAGE.

In experiment [3] the target is T2, phytochrome B (phyB), full length …. Kind of experiment: pull-down; StrepII-tagged PIF6 forms or PIFNs held on Strep-Tactin Sepharose, 3× Flag-phyB in the mixture; red light (665 nm, 800 μmol m^-2 s^-1), 4 °C, 2 h; buffer E (100 mM Tris-HCl pH 8.0, 150 mM NaCl, 1 mM EDTA); eluted with D-desthiobiotin; SDS-PAGE with Coomassie and zinc-induced fluorescence.
Experiment [4] concerns the target T3, phyB^Y276H, full length (Arabidopsis, UniProt P14713 1-1172, Y276H, PΦB chromophore covalently bound).
T3 construct: Arabidopsis phytochrome B, residues 1-1172, At2g18790, with Y276H; also called constitutively active mutant phyB^Y276H; source: E. coli BL21(DE3), co-expressed with HO1 and HY2, purified (Ni-NTA, anti-FLAG resin, Source Q); not shown: 3× Flag ([residues removed]), N-terminal, kept
T3 sequence (looked up): T2 sequence (looked up) with Y276H
Nature of the experiment: pull-down; StrepII-tagged PIF6 forms or PIFNs held on Strep-Tactin Sepharose, 3× Flag-phyB or phyB^Y276H in the mixture; in the dark, 4 °C, 2 h; buffer E (100 mM Tris-HCl pH 8.0, 150 mM NaCl, 1 mM EDTA); SDS-PAGE with Coomassie and zinc-induced fluorescence.

B1: PIF6N (1‒64) (domain or fragment, Arabidopsis, UniProt Q8L5W7 1-64, looked up)
chain: MMFLPTDYCCRLSDQEYMELVFENGQILAKGQRSNVSLHNQRTKSIMDLYEAEYNEDFMKSIIH
notes: Arabidopsis PIF6, residues 1-64 (methods of the pull-down); the legends call PIF6N residues 1-60 and the results R11-S60; Probably in the modified pET15b vector (N-terminal His6, C-terminal StrepII) like the other PIFNs; also called N-terminus of PIF6β; source: E. coli BL21(DE3), purified
As for B1, the binding result in experiment [1] and in experiment [2] was “binds” in each case.

B2: PIF6αΔC (1‒247) (domain or fragment, Arabidopsis, UniProt Q8L5W7 1-247, looked up)
chain: MMFLPTDYCCRLSDQEYMELVFENGQILAKGQRSNVSLHNQRTKSIMDLYEAEYNEDFMKSIIHGGGGAITNLGDTQVVPQSHVAAAHETNMLESNKHVDDSETLKASSSKRMMVDYHNRKKIKFIPPDEQSVVADRSFKLGFDTSSVGFTEDSEGSMYLSSSLDDESDDARPQVPARTRKALVKRKRNAEAYNSPERNQRNDINKKMRTLQNLLPNSHKDDNESMLDEAINYMTNLQLQVQMMTMG
notes: Arabidopsis PIF6α, residues 1-247; also called PIF6ΔC; C-terminus-truncated PIF6α; source: E. coli BL21(DE3), purified (Ni-NTA, Strep-Tactin, Source Q); not shown: StrepII, C-terminal, kept
Regarding B2, the binding result in experiment [3] and in experiment [4] was “binds” throughout.
